Paper PMC9038631 (Journal of neuroendocrinology, 2022)

Target: T1, aromatase (rat (endogenous in hypothalamus and …, UniProt P22443 1-508))
T1 sequence (looked up): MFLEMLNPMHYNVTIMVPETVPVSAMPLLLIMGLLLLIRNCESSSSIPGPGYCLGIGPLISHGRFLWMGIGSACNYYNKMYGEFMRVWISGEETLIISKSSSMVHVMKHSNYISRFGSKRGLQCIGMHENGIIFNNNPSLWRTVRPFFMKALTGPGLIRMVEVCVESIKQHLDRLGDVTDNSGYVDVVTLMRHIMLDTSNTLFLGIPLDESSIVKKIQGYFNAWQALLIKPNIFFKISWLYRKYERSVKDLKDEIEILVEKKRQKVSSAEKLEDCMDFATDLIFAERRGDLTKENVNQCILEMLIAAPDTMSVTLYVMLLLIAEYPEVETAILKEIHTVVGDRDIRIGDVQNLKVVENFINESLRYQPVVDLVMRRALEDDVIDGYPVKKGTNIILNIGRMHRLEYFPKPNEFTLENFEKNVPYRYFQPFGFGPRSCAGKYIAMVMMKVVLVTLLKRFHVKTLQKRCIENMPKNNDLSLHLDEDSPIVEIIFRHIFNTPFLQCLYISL
Experiment: co-IP

fold more co-IPed with hypothalamic than with spinal aromatase: 5.4 fold
B1: protein phosphatase 5 (PP5) (enzyme, UniProt P53042 1-499, looked up)
chain: MAMAEGERTECAEPPRDEPPAEGTLKRAEELKTQANDYFKAKDYENAIKFYSQAIELNPSNAIYYGNRSLAYLRTECYGYALGDATRAIELDKKYIKGYYRRAASNMALGKFRAALRDYETVVKVKPNDKDAKMKYQECSKIVKQKAFERAIAGDEHRRSVVDSLDIESMTIEDEYSGPKLEDGKVTITFMKDLMQWYKDQKKLHRKCAYQILVQVKEVLCKLSTLVETTLKETEKITVCGDTHGQFYDLLNIFELNGLPSETNPYIFNGDFVDRGSFSVEVILTLFGFKLLYPDHFHLLRGNHETDNMNQIYGFEGEVKAKYTAQMYELFSEVFEWLPLAQCINGKVLIMHGGLFSEDGVTLDDIRKIERNRQPPDSGPMCDLLWSDPQPQNGRSVSKRGVSCQFGPDVTKAFLEENQLDYIIRSHEVKAEGYEVAHGGRCVTVFSAPNYCDQMGNKASYIHLQGSDLRPQFHQFTAVPHPNVKPMAYANTLLQLGMM
